Test results taken from patent publication US20240409645A1.
Residue numbers refer to the chain shown, from its start.

T1: mouse IL-2Rα (mouse) (UniProt P01590)
T1 sequence (looked up): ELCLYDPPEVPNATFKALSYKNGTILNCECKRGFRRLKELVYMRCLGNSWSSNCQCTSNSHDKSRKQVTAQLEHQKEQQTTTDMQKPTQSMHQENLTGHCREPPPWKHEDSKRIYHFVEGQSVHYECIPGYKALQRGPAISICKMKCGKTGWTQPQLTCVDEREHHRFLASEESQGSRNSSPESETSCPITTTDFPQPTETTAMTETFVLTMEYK

T2: mouse IL-2Rγ (mouse) (UniProt P34902)
T2 sequence (looked up): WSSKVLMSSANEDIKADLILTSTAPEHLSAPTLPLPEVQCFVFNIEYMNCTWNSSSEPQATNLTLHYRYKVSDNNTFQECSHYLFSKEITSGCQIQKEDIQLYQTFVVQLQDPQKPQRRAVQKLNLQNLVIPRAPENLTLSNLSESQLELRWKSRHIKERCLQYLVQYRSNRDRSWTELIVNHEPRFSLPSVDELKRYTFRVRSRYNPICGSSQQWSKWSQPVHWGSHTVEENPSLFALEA

B1: 3-MP01E03 (VHH)
VHH: QVQLVESGGGLVQAGGSLRLSCTASGRTLSSYSMAWFRQAADKGREFVTAISSSGVVTHVLDSVKGRFTISRDNAKNTVYLQMNSLQPEDTALYFCAGTASSYSTYEANYNYWGQGTLVTVSS
B2: 6-MP01G05 (VHH)
VHH: QVQLQESGGGLVQAGGSLRLSCAASGRTFSSYAMGWFRQAPGKEREFVAVISWNVDNTEYTDSVKGRFTISRDNDKNMVYLQMNSLKPEDTAVYYCAADSIPLSSDMSPTATEYGYWGQGTQVTVSS
B3: 2-MP01A02 (VHH)
VHH: QVQLVESGGGLVQPGGSLRLSCATSGFTFRNNFMSWVRQAPGKGLEWVSTISYGGESTTYAESVKGRFTISRDNAKNTLYLQMNNLKPEDTAVYYCAKATSYDSIRSGSRGQGTQVTVSS
B4: FJ1427_P035MP01F03 (VHH)
VHH: B3 VHH with T24A, R30S, I105V
B5: FJ1427_P035MP01G04 (VHH)
VHH: B3 VHH with T24A, R30S, G54F, E56D, T59R, A75E, Y80H, Q112R
B6: FJ1427_P035MP01C03 (VHH)
VHH: B3 VHH with Q1E
B7: 8-MP01C12 (VHH)
VHH: B3 VHH with R30S, W47F, S63A, V93I, D103T, S107G, G108A, S109P
B8: FJ1427_P035MP01D03 (VHH)
VHH: B3 VHH with Q1E, K43E
B9: FJ1427_P035MP01H02 (VHH)
VHH: QLQLVESGGGLVQAGDSLRLSCAASGRAFSRYAVGWFRMAPGKGREFVSAINSSGANTYVLDSVKGRFTISRDNDKNTAYLQMDSLQPEDTAVYWCAATSSSYSTYEANYNVWGQGTQVTVSS
B10: 5-MP01F05 (VHH)
VHH: EVQLVESGGGLVQAGGSLRLSCAASIRAFTTWSMAWFRQAPGKEREYVARINVSGSVTYYADFVKGRFTISRDNAKKTMYLEMNNLKPEDTALYYCAADRTGVGTNDYNYWGQGTQVTVSS
B11: 1-MP01H01 (VHH)
VHH: EVQLVESGGGLVQAGGSLRLSCAASGRTFRTHNMGWFRRAPGKEREFVAAISWNVDNTLYADSVKGRFTISRDNGRNMVYLQMNSLKPEDTAVYYCAADNIPLSSDVAATATEYDYWGQGTQVTVSS
B12: FJ1427_P035MP01F02 (VHH)
VHH: B11 VHH with E1Q, V5Q, V55I, T58K, F68S, R76G, Y80F, N100K, Y116D
B13: FJ1427_P035MP01G01 (VHH)
VHH: B11 VHH with E1Q, V5Q, G75D, Y95F, A108R, Y114F, D115G, Q122R
B14: FJ1427_P035MP01B01 (VHH)
VHH: EVQLVESGGGWVQAGDSLRLSCAASGRTFRNYVMGWFRQVPGKEREFLSVITSLGGTVYADSVANRFTISRDNPKDTVYLQMDSLKPEDTAVYYCAADRGPARYISASDVDYWGQGTQVTASS
B15: FJ1427_P035MP01D04 (VHH)
VHH: B14 VHH with E1Q, A14P, T28S, S53W, V58L, Y59D, N65D, P74S, D76N, A121V
B16: 07-MP01G08 (VHH)
VHH: EVQLVESGGGLVQAGGSLRLSCAASGRAFSMYNMGWFRQAPGKEREFVAATGWSGANTPYADSVKGRFTISRDNTQNTVYLQMNSLKPEDTATYYCAADSIRLRSDVTRIPLEYDYWGQGTQVTVSS
B17: FJ1427_P035MP01A01 (VHH)
VHH: EVQLVESGGGLVQAGDSLRLSCAASGRSFRNYILAWYRQAPGKEREFLAAISWLDGTLYADSVEDRFTISRDNPKNTVHLQMDNLKPEDTAVYYCAADRGPVRPVLAPDVDYWGQGTQVSVSS
B18: FJ1427_P035MP01E02 (VHH)
VHH: B17 VHH with E1Q, S120T
B19: FJ1427_P035MP01G03 (VHH)
VHH: B17 VHH with E1Q, R99Q, S120T
B20: FJ1427_P035MP01E04 (VHH)
VHH: B17 VHH with E1Q, A24V, L58F, D61N, D65G, N84G, S120T, S122A
B21: FJ1427_P035MP04A10 (VHH)
VHH: EVQLVESGGGWVQVGESLRLSCAPSGRTFVSGIMGWFRQAPGKEREFVARIILNNNSTRYTDSVKGRFTISRDSAKNTMYLQMNTLRPEDTAVYYCAARDRYGSGNSLSPSAYDYWGQGTQVTVSS
B22: FJ1427_P035MP04C12 (VHH)
VHH: B21 VHH with T61I, N84D, T85S
B23: FJ1427_P035MP04H10 (VHH)
VHH: B21 VHH with E1Q, W11L, V14A, E16G, T61I, N84D, T85S
B24: FJ1427_P035MP04B11 (VHH)
VHH: B21 VHH with T61I, N84D, T85S
B25: FJ1427_P035MP04H11 (VHH)
VHH: B21 VHH with E1Q, L18P, A40T
B26: FJ1427_P035MP04G11 (VHH)
VHH: B21 VHH with E1Q, K43E
B27: FJ1427_P035MP04F10 (VHH)
VHH: B21 VHH with E1Q, V2L, A23V, L53S
B28: FJ1427_P035MP04B10 (VHH)
VHH: B21 VHH with T61I, N84D, T85S, S126L
B29: FJ1427_P035MP04E12 (VHH)
VHH: B21 VHH with E1Q, V2L, V30A
B30: FJ1427_P035MP04F11 (VHH)
VHH: B21 VHH with E1Q, A40T, M79L
B31: FJ1427_P035MP04G10 (VHH)
VHH: B21 VHH with E1Q, N55S, V64A, N84D, T85S
B32: FJ1427_P035MP04C10 (VHH)
VHH: B21 VHH with E1Q, V5Q, A23V
B33: FJ1427_P035MP04D12 (VHH)
VHH: B21 VHH with E1Q, E16K, T61I, N84D, T85S
B34: FJ1427_P035MP04A11 (VHH)
VHH: QVQLVESGGGLVQAGESLRLSCAASGPTASRVAVAWFRQVPGKEREFVAVVNRPGTMTKYADSVKGRFTISRDSAKNTVYLQMNSLKPEDTAVYYCAADSVPYGRPYYFQTSAGNYDYWGQGTQVTVSS
B35: FJ1427_P035MP04C11 (VHH)
VHH: B34 VHH with A14H, E16G, A29F, A35G, T56S, T69N, S74T, Q110T, N115D
B36: FJ1427_P035MP04D11 (VHH)
VHH: EVQLVESGGGLVQAGGSLRLSCAASGRTFGAVAVGWFRQVPGKEREFVAAINRSGSATKYADSVKGRFTISRDNAESPVFLQMNSLKPEDTAVYYCAADSLPYGRPYYFQTSAGEYDYWGQGTQVTVSS

Target: T1, mouse IL-2Rα (mouse)
Experiment: ELISA, P.E. on coated antigen

Row | Binder | OD (PE binding ELISA) [OD450 nm]
1 | B1 | 0.046
2 | B2 | 0.046
3 | B3 | 0.046
4 | B4 | 0.045
5 | B5 | 0.047
6 | B6 | 0.045
7 | B7 | 0.045
8 | B8 | 0.048
9 | B9 | 0.047
10 | B10 | 0.046
11 | B11 | 0.048
12 | B12 | 0.046
13 | B13 | 0.053
14 | B14 | 0.046
15 | B15 | 0.045
16 | B16 | 0.046
17 | B17 | 0.046
18 | B18 | 0.046
19 | B19 | 0.048
20 | B20 | 0.046

Target: T2, mouse IL-2Rγ (mouse)
Experiment: PE binding ELISA, periplasmic extract on coated protein

Row | Binder | OD (PE binding ELISA) [OD450 nm]
21 | B21 | 0.048
22 | B22 | 0.048
23 | B23 | 0.049
24 | B24 | 0.047
25 | B25 | 0.049
26 | B26 | 0.048
27 | B27 | 0.048
28 | B28 | 0.047
29 | B29 | 0.051
30 | B30 | 0.049
31 | B31 | 0.049
32 | B32 | 0.047
33 | B33 | 0.054
34 | B34 | 0.05
35 | B35 | 0.047
36 | B36 | 0.048
